Results published in article PMC3345047 (Molecular Microbiology, 2012).

Target: the molecule itself
Assay: SEC

B1: pro-PanD (uncleaved L-aspartate-alpha-decarboxylase) of Salmonella enterica (enzyme, S. enterica serovar Typhimurium LT2, UniProt P65662 1-126, looked up)
chain: MIRTMLQGKLHRVKVTQADLHYEGSCAIDQDFLDASGILENEAIDIWNVTNGKRFSTYAIAAERGSRIISVNGAAAHCAEVGDIVIIASFVTMSDEEARTWRPKVAYFEGDNEMKRTAKAIPVQVA
Question: With B1 as the protein, how does the “stoichiometry N” value read?
Answer: 4
